Numbering of substitutions follows the chain as printed. In names and notes the source's numbering stands.

Data set [1] deals with Von Willebrand Factor (VWF) multimers, P04275.
Data set [2] deals with T1, FRETS-VWF73 fluorogenic substrate, P04275.
T1 chain: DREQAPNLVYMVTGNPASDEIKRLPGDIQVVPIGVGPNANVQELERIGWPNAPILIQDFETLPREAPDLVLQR

B1: ADAMTS13 variant NGLY3 plus L591A/R636A/L637A/L668A (protein)
chain: AAGGILHLELLVAVGPDVFQAHQEDTERYVLTNLNIGAELLRDPSLGAQFRVHLVKMVILTEPEGAPNITANLTSSLLSVCGWSQTINPEDDTDPGHADLVLYITRFDLELPDGNRQVRGVTQLGGACSPTWSCLITEDTGFDLGVTIAHEIGHSFGLEHDGAPGSGCGPSGHVMASDGAAPRAGLAWSPCSRRQLLSLLSAGRARCVWDPPRPQPGSAGHPPDAQPGLYYSANEQCRVAFGPKAVACTFAREHLDMCQALSCHTDPLDQSSCSRLLVPLLDGTECGVEKWCSKGRCRSLVELTPIAAVHGRWSSWGPRSPCSRSCGGGVVTRRRQCNNPRPAFGGRACVGADLQAEMCNTQACEKTQLEFMSQQCARTDGQPLRSSPGGASFYHWGAAVPHSQGDALCRHMCRAIGESFIMKRGDSFLDGTRCMPSGPREDGTLSLCVSGSCRTFGCDGRMDSQQVWDRCQVCGGDNSTCSPRKGSFTAGRAREYVTFLTVTPNLTSVYIANHRPAFTHLAVRIGGRYVVAGNMSISPNTTYPSLLEDGRVEYRVALTEDAAPRLEEIRIWGPLQEDADIQVYRRYGEEYGNATRPDITFTYFQPKPRQAWVWAAVRGPCSVSCGAGLRWVNYSCLDQARKELVETVQCQGSQQPPAWPEACVLEPCPPYWAVGDFGPCSASCGGGLRERPVRCVEAQGSLLKTLPPARCRAGAQQPAVALETCNPQPCPARWEVSEPSSCTSAGGAGLALENETCVPGADGLEAPVTEGPGSVDEKLPAPEPCVGMSCPPGWGHLDATSAGEKAPSPWGSIRTGAQAAHVWTPAAGSCSVSCGRGLMELRFLCMDSALRVPVQEELCGLASKPGSRREVCQAVPCPARWQYKLAACSVSCGRGVVRRILYCARAHGEDDGEEILLDTQCQGLPRPEPQEACSLEPCPPRWKVMSLGPCSASCGLGTARRSVACVQLDQGQDVEVDEAACAALVRPEASVPCLIADCTYRWHVGTWMECSVSCGDGIQRRRDTCLGPQAQAPVPADFCQHLPKPVTVRGCWAGPCVGQGTPSLVPHEEAAAPGRTTATPAGASLEWSQARGLLFSPAPQPRRLLPGPQENSVQSSACGRQHLEPTGTIDMRGPGQADCAVAIGRPLGEVVTLRVLESSLNCSAGDMLLLWGRLTWRKMCRKLLDMTFSSKTNTLVVRQRCGRPGGGVLLRYGSQLAPETFYRECDMQLFGPWGEIVSPSLSPATSNAGGCRLFINVAPHARIAIHALATNMGAGTEGANASYILIRDTHSLRTTAFHGQQVLYWESESSQAEMEFSEGFLKAQASLRGQYWTLQSWVPEMQDPQSWKGKEGT
In the case of B1, in data set [1], the “Ability to process VWF multimers under denaturing conditions” value (shortened to “Ability to process VWF multimers”) is recorded as “++”; the “vortex assay: processing of VWF multimers under shear stress” value (“vortex assay: processing” for short) is “Combinations of NGLY3 plus L591A/R636A/L637A/L668A and NGLY3 plus R568A/Y665A efficiently processed VWF multimers”. Also, the Activity level (% relative to wild type ADAMTS13) VWFFRETS73 (% relative to wild type ADAMTS13) in data set [2] was 95.

B2: ADAMTS13 variant L591A/R636A/L637A/L668A (protein)
chain: B1 chain with N534K
B2: in data set [1], the “Ability to process VWF multimers” value is given as “++”; the “vortex assay: processing” value was “the proteolytic activity of R568A/Y665A and the L591A/R636A/L637A/L668A variants were reduced when compared to wild type ADAMTS13”. Also, the Activity level (% relative to wild type ADAMTS13) VWFFRETS73 (% relative to wild type ADAMTS13) in data set [2] turned out to be 90.

B3: ADAMTS13 variant R568A/Y665A (protein)
chain: B1 chain with R494A, A517L, N534K, A562R, A563L, Y591A, A594L
On to B3, for which, in data set [1], the “Ability to process VWF multimers” value was “++”; the “vortex assay: processing” value was “the proteolytic activity of R568A/Y665A and the L591A/R636A/L637A/L668A variants were reduced when compared to wild type ADAMTS13”. In data set [2], the Activity level (% relative to wild type ADAMTS13) VWFFRETS73 (% relative to wild type ADAMTS13) came to 120.

B4: ADAMTS13 variant NGLY3 + R568A/Y665A (protein)
chain: B1 chain with R494A, A517L, A562R, A563L, Y591A, A594L
Consider B4, for which, in data set [1], the “Ability to process VWF multimers” value is recorded as “++”; the “vortex assay: processing” value was “Combinations of NGLY3 plus L591A/R636A/L637A/L668A and NGLY3 plus R568A/Y665A efficiently processed VWF multimers”. The same protein showed an Activity level (% relative to wild type ADAMTS13) VWFFRETS73 (% relative to wild type ADAMTS13) in data set [2] of 120.

These data come from US12698494.
